Assay results from patent US20120100139A1 (APTEVO RESEARCH AND DEVELOPMENT, published 2012).

How the values were obtained:
CD86-mIgG (Ancell, Inc) [1] = biological target: T1, CD86-mIgG (Ancell, Inc) (UniProt P42081 24-247, limits assumed); assay: SPR (BIAcore T100), CD86-mIgG immobilized on CM5; first site
T1 construct: Bought reagent
T1 sequence (looked up): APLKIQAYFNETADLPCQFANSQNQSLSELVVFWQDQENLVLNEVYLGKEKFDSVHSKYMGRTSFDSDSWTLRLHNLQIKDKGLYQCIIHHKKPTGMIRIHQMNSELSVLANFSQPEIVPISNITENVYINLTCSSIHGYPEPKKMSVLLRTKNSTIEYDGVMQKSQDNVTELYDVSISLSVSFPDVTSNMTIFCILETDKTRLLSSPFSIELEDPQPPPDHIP
Description: (§1) SPR measurements were performed on a BIAcore™ T100 SPR (Pharmacia Biotech AB, Uppsala) using HBS-EP+ (GE Healthcare) as a running buffer. […] CTLA4-containing constructs were injected for 150 seconds, at a flow rate of 10 μl/min, in a series of concentrations from 4 nM to 10 μM. Dissociation was monitored for 600 seconds, and the surface was either regenerated by injecting 50 mM sodium citrate, 500 mM sodium chloride, pH 5.0, for 60 seconds (wild type CTLA4) or 10 mM glycine, pH 1.7 (L104E A29Y CTLA4). […] Data were analyzed using BiaEvaluation for the T100 software (version 2.0.1, GE Healthcare).
(§2) SPR measurements were performed as listed above, with the following exceptions: HBS-P+ (GE Healthcare) was used as a running buffer; dissociation was monitored for 1200 seconds; and the surface was regenerated by injecting 10 mM glycine, pH 1.7, for 60 seconds.

CD86-mIgG (Ancell, Inc) [2] = biological target: T1, CD86-mIgG (Ancell, Inc); assay: SPR (BIAcore T100), CD86-mIgG immobilized on CM5; second site
Description: as §1, §2

CD86-mIgG (Ancell, Inc) [3] = biological target: T1, CD86-mIgG (Ancell, Inc); assay: SPR (BIAcore T100), CD86-mIgG immobilized on CM5; steady-state equilibrium fit
Description: as §1, §2

B1: 3D1 SMIP (Fc fusion)
chain: QVQLQQSGPELVRPGESVKISCKGSGYTFTDYAIQWVKQSHAKSLEWIGVINIYYDNTNYNQKFKGKATMTVDKSSSTAYMELARLTSEDSAIYYCARAAWYMDYWGQGTSVTVSSGGGGSGGGGSGGGGSGGGGSDIVLSQSPSSLAVSAGEKVTMSCKSSQSLLNSRTRENYLAWYQQKPGQSPKLLIYWASTRESGVPDRFTGSGSGTDFTLTISSVQAEDLAVYYCTQSYNLYTFGGGTKLEIKLEPKSSDKTHTCPPCPAPEAAGAPSVFLFPPKPKDTLMISRTPEVTCVVVDVSHEDPEVKFNWYVDGVEVHNAKTKPREEQYNSTYRVVSVLTVLHQDWLNGKAYACAVSNKALPAPIEKTISKAKGQPREPQVYTLPPSRDELTKNQVSLTCLVKGFYPSDIAVEWESNGQPENNYKTTPPVLDSDGSFFLYSKLTVDKSRWQQGNVFSCSVMHEALHNHYTQKSLSLSPG
notes: SMIP: murine 3D1 scFv at the N-terminus of a hinge-Fc single chain
koff (CD86-mIgG (Ancell, Inc) [1]): 4.4e-05 s⁻¹ | kon (CD86-mIgG (Ancell, Inc) [1]): 323000 M⁻¹ s⁻¹ | Second Site ka (CD86-mIgG (Ancell, Inc) [2]): 0.0055 s⁻¹ | Second Site kd (CD86-mIgG (Ancell, Inc) [2]): 0.0276 s⁻¹ | Kd (CD86-mIgG (Ancell, Inc) [3]): 0.0117 µM

B2: 3D1::IL10 xceptor (Fc fusion)
chain: QVQLQQSGPELVRPGESVKISCKGSGYTFTDYAIQWVKQSHAKSLEWIGVINIYYDNTNYNQKFKGKATMTVDKSSSTAYMELARLTSEDSAIYYCARAAWYMDYWGQGTSVTVSSGGGGSGGGGSGGGGSGGGGSDIVLSQSPSSLAVSAGEKVTMSCKSSQSLLNSRTRENYLAWYQQKPGQSPKLLIYWASTRESGVPDRFTGSGSGTDFTLTISSVQAEDLAVYYCTQSYNLYTFGGGTKLEIKLEPKSSDKTHTCPPCPAPEAAGAPSVFLFPPKPKDTLMISRTPEVTCVVVDVSHEDPEVKFNWYVDGVEVHNAKTKPREEQYNSTYRVVSVLTVLHQDWLNGKAYACAVSNKALPAPIEKTISKAKGQPREPQVYTLPPSRDELTKNQVSLTCLVKGFYPSDIAVEWESNGQPENNYKTTPPVLDSDGSFFLYSKLTVDKSRWQQGNVFSCSVMHEALHNHYTQKSLSLSPGNSLFNQEVQIPLTESYSPNSSPGQGTQSENSCTHFPGNLPNMLRDLRDAFSRVKTFFQMKDQLDNLLLKESLLEDFKGYLGCQALSEMIQFYLEEVMPQAENQDPDIKAHVNSLGENLKTLRLRLRRCHRFLPCENKSKAVEQVKNAFNKLQEKGIYKAMSEFDIFINYIEAYMTMKIRN
notes: anti-CD86 3D1 scFv - Fc - IL10
koff (CD86-mIgG (Ancell, Inc) [1]): 7.06e-05 s⁻¹ | kon (CD86-mIgG (Ancell, Inc) [1]): 974000 M⁻¹ s⁻¹ | Second Site ka (CD86-mIgG (Ancell, Inc) [2]): 0.0094 s⁻¹ | Second Site kd (CD86-mIgG (Ancell, Inc) [2]): 0.0462 s⁻¹ | Kd (CD86-mIgG (Ancell, Inc) [3]): 0.0265 µM

B3: SEQ ID NO: 328 (Fc fusion)
chain: EPKSSDKTHTCPPCPAPEAAGAPSVFLFPPKPKDTLMISRTPEVTCVVVDVSHEDPEVKFNWYVDGVEVHNAKTKPREEQYNSTYRVVSVLTVLHQDWLNGKAYACAVSNKALPAPIEKTISKAKGQPREPQVYTLPPSRDELTKNQVSLTCLVKGFYPSDIAVEWESNGQPENNYKTTPPVLDSDGSFFLYSKLTVDKSRWQQGNVFSCSVMHEALHNHYTQKSLSLSPGNSLFNQEVQIPLTESYSPNSQVQLQQSGPELVRPGESVKISCKGSGYTFTDYAIQWVKQSHAKSLEWIGVINIYYDNTNYNQKFKGKATMTVDKSSSTAYMELARLTSEDSAIYYCARAAWYMDYWGQGTSVTVSSGGGGSGGGGSGGGGSGGGGSDIVLSQSPSSLAVSAGEKVTMSCKSSQSLLNSRTRENYLAWYQQKPGQSPKLLIYWASTRESGVPDRFTGSGSGTDFTLTISSVQAEDLAVYYCTQSYNLYTFGGGTKLEIK
notes: also called 3D1 PIMS (probably)
koff (CD86-mIgG (Ancell, Inc) [1]): 2.37e-05 s⁻¹ | kon (CD86-mIgG (Ancell, Inc) [1]): 112000 M⁻¹ s⁻¹ | Second Site ka (CD86-mIgG (Ancell, Inc) [2]): 0.00077 s⁻¹ | Second Site kd (CD86-mIgG (Ancell, Inc) [2]): 0.00377 s⁻¹ | Kd (CD86-mIgG (Ancell, Inc) [3]): 0.028 µM
